Source: the supplement of paper PMC7877785
± gives the uncertainty stated by the source.

Assay: self-splicing fitness, log relative to wild type (ln ratio); higher = more splicing; Tetrahymena group I intron in knt gene, E. coli kanamycin selection, DiMSum; sequences stand for … in CUCUCU…GGAGGGAAAAGUUAUCAGGCAUGCACCUGGUAGCUAGUCUUUAAACCAAUAGAUUGCAUCGGUUUAAAAGGCAAGACCGUCAAAUUGCGGGAAAGGGGUCAACAGCCGUUCAGUACCAAGUCUCAGGGGAAACUUUGAGAUGGCCUUGCAAAGGGUAUGGUAAUAAGCUGACGGACAUGGUCCUAACCACGCAGCCAAGUCCUAAGUCAACAGAUCUUCUGUUGAUAUGGAUGCAGUUCACAGACUAAAUGUCGGUCGGGGAAGAUGUAUUCUUCUCAUAAGAUAUAGUCGGACCUCUCCUUAAUGGGAGCUAGCGGAUGAAGUGAUGCAACACUGGAGCCGCUGGGAACUAAUUUGUAUGCGAAAGUAUAUUGAUUAGUUUUGGAGUACUCGUGGUCG
Method in brief: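 Library with all eight P1ex-region intron nucleotides randomised, intron inside the knt kanamycin-resistance gene on pET-22b(+), in E. coli BL21(DE3). Cells grew overnight at 37°C or 30°C on LB agar with or without 25 μg/mL kanamycin (plus 100 μg/mL carbenicillin, 50 μM IPTG, 0.2% rhamnose), in six replicate transformations. Pooled colonies were amplicon-sequenced on Illumina HiSeq 2500. DiMSum fitness is the error-weighted combination of wild-type-normalised replicate fold changes, kanamycin versus none.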

Sequence	self-splicing fitness (ln) (30 °C)	self-splicing fitness (ln) (37 °C)
CAUGAGCAAUAUUACGGCUG	-0.641 ± 0.073	-0.532 ± 0.12
CAUGAGCAAUAUUACGGGUU	-3.04 ± 0.1	-3.05 ± 0.16
CAUGAGCAAUAUUACGUAAU	-3.04 ± 0.29	-2.73 ± 0.3
CAUGAGCAAUAUUACGUCGG	-2.94 ± 0.18	-1.57 ± 0.21
CAUGAGCAAUAUUACGUGAG	-3.88 ± 0.37	-2.55 ± 0.24
CAUGAGCAAUAUUACGUGCA	-1.37 ± 0.15	-1.97 ± 0.24
CAUGAGCAAUAUUACGUUGU	-4.13 ± 0.29	-3.57 ± 0.19
CAUGAGCAAUAUUACGUUUG	-3.57 ± 0.16	-2.89 ± 0.2
CAUUAGCAAUAUUACGACCU	-1.77 ± 0.45	-1.77 ± 0.47
CAUUAGCAAUAUUACGACGG	-0.257 ± 0.094	-0.0198 ± 0.13
CAUUAGCAAUAUUACGAGGC		-1.85 ± 0.33
CAUUAGCAAUAUUACGAUGA	-2.12 ± 0.2	-1.09 ± 0.15
CAUUAGCAAUAUUACGAUGU	-3.45 ± 0.25	-3.38 ± 0.23
CAUUAGCAAUAUUACGAUUG	-1.49 ± 0.077	-0.759 ± 0.11
CAUUAGCAAUAUUACGCCAC	-2.71 ± 0.44	-2.41 ± 0.35
CAUUAGCAAUAUUACGCCUC	-1.17 ± 0.21	-1.83 ± 0.31
CAUUAGCAAUAUUACGCGAU	-3.83 ± 0.32	-1.52 ± 0.23
CAUUAGCAAUAUUACGCGUC	-2.64 ± 0.29	-2.01 ± 0.26
CAUUAGCAAUAUUACGCUGG	-2.7 ± 0.13	-1.67 ± 0.14
CAUUAGCAAUAUUACGCUUA	-2.22 ± 0.13	-2.16 ± 0.15
CAUUAGCAAUAUUACGCUUC	-2.28 ± 0.34	
CAUUAGCAAUAUUACGGACA	-2.45 ± 0.22	-1.22 ± 0.18
CAUUAGCAAUAUUACGGAUG	-3.67 ± 0.39	-3.03 ± 0.25
CAUUAGCAAUAUUACGGCAG	-0.186 ± 0.078	-0.0776 ± 0.11

Sequence	self-splicing fitness (ln) (30 °C)	self-splicing fitness (ln) (37 °C)
CAUUAGCAAUAUUACGGCAU	-2.99 ± 0.21	-1.66 ± 0.17
CAUUAGCAAUAUUACGGGAC	-3.64 ± 0.27	-2.31 ± 0.25
CAUUAGCAAUAUUACGGUAG	-0.468 ± 0.062	-0.027 ± 0.072
CAUUAGCAAUAUUACGUACG	-0.341 ± 0.09	0.593 ± 0.12
CAUUAGCAAUAUUACGUACU	-3.11 ± 0.18	-1.8 ± 0.15
CAUUAGCAAUAUUACGUUCG	0.151 ± 0.084	0.359 ± 0.093
CAUUAGCAAUAUUACGUUUA	-1.42 ± 0.15	-1.48 ± 0.15
CCAAAGCAAUAUUACGACAG	-0.638 ± 0.066	-0.249 ± 0.089
CCAAAGCAAUAUUACGAGCG	-0.496 ± 0.069	-0.161 ± 0.1
CCAAAGCAAUAUUACGCAAG	-1.83 ± 0.12	-1.52 ± 0.14
CCAAAGCAAUAUUACGCCCC		-0.985 ± 0.44
CCAAAGCAAUAUUACGCCCG	-0.324 ± 0.15	0.862 ± 0.18
CCAAAGCAAUAUUACGCCGU	-3.25 ± 0.29	-3.3 ± 0.35
CCAAAGCAAUAUUACGCUUC	-3.37 ± 0.18	-2.48 ± 0.18
CCAAAGCAAUAUUACGGAGU	-2.7 ± 0.13	-2.35 ± 0.2
CCAAAGCAAUAUUACGGCGU	-3.49 ± 0.12	-2.62 ± 0.14
CCAAAGCAAUAUUACGGGAC	-4.28 ± 0.3	-3.32 ± 0.46
CCAAAGCAAUAUUACGGGCG	-1.31 ± 0.065	-0.301 ± 0.094
CCAAAGCAAUAUUACGGGGC	-3.09 ± 0.19	-2.93 ± 0.27
CCAAAGCAAUAUUACGGGGG	-3.14 ± 0.18	-1.5 ± 0.16
CCAAAGCAAUAUUACGGUCC	-4.23 ± 0.46	-2.13 ± 0.3
CCAAAGCAAUAUUACGGUGG	-4.1 ± 0.19	-1.76 ± 0.16
CCAAAGCAAUAUUACGUACA	-3.73 ± 0.23	-3.32 ± 0.28
CCAAAGCAAUAUUACGUGAA	-4.04 ± 0.17	-3.18 ± 0.27
